Measurements from patent US20250339569A1 (3B PHARMACEUTICALS, published 2025).
One block for each binder: values may come before it. Starred links: 1 amine or outer side, 2 acyl side, 3 side chain; linkers in the order of their positions; H or OH if unused. Positions of bridges follow the written chain, without caps; N, C: chain ends. Non-standard residues stand in square brackets, D forms with d. Groups on a side chain read outwards from the residue. No end group written: not given here. *: point of attachment. DOTA = O=C(O)CN1CCN(CC(=O)O)CCN(CC(=O)*)CCN(CC(=O)O)CC1; mXylylene = c1cc(C[*:1])cc(C[*:2])c1; NMeY = CN[C@@H](Cc1ccc(O)cc1)C(=O)O; APAc = not defined here; Apr = not defined here; AEEA = NCCOCCOCC(=O)O

Target: human carbonic anhydrase 9 (CAIX) (human, UniProt Q16790 38-459)
Assay: FACS competition on HT-29 cells against tracer 3BP-2776; pIC50 category A = pIC50 >8.0
Protocol: CAIX-expressing human HT-29 colorectal cancer cells (DSMZ, RRID: CVCL_0320) were cultured in McCoys's 5A modified medium (Biochrom, #F1015) including 10% fetal calf serum (FCS), 2 mM L-glutamine, 100 U/ml penicillin and 100 μg/mL streptomycin. Cells were detached with Accutase (Biolegend, #423201) and washed in FACS buffer (PBS including 1% FCS). Cells were diluted in FACS buffer to a final concentration of 500.000 cells per ml. 200 μL of the cell suspension were transferred to a u-shaped non-binding 96-well plate (Greiner) and cells were washed in ice-cold FACS buffer.
When biotinylated compounds were used an additional incubation step with 1 μg/mL APC-Streptavidin (Miltenyi; #130-106-791) in 50 μL FACS buffer for 30 minutes on ice was performed.
Cells were washed twice with ice-cold FACS buffer and analyzed in an Attune NxT flow cytometer (Thermo Fisher). Median fluorescence intensities (MFI) of the APC/Cy5-channel were calculated by Attune NxT software.

B1: 3BP-3433 (peptide)
peptide: Ac-VYCE[dP]DWLTWAC
modifications: linker 3-12 via mXylylene; not fully specified (C-terminus)
notes: The printed formula ends at '-Ape-NH'; also called Ac-Val-Tyr-[Cys(3MeBn)-Glu-pro-Asp-Trp-Leu-Thr-Trp-Ala-Cys]-Mamb-Ape-NH
pIC50: > 8 pic50

B3: 3BP-3570 (peptide)
peptide: Ac-VFCE[dP]DWLTWSC-NH2
modifications: linker 3-12 via mXylylene
SMILES: CC(=O)N[C@H](C(=O)N[C@@H](Cc1ccccc1)C(=O)N[C@H]1CSCc2cccc(c2)CSC[C@@H](C(N)=O)NC(=O)[C@H](CO)NC(=O)[C@H](Cc2c[nH]c3ccccc23)NC(=O)[C@H]([C@@H](C)O)NC(=O)[C@H](CC(C)C)NC(=O)[C@H](Cc2c[nH]c3ccccc23)NC(=O)[C@H](CC(=O)O)NC(=O)[C@H]2CCCN2C(=O)[C@H](CCC(=O)O)NC1=O)C(C)C
notes: also called Ac-Val-Phe-[Cys(3MeBn)-Glu-pro-Asp-Trp-Leu-Thr-Trp-Ser-Cys]-NH2
pIC50: > 8 pic50

B4: 3BP-3588 (peptide)
peptide: Ac-VRCE[dP]DWLTWSC-NH2
modifications: linker 3-12 via mXylylene
SMILES: CC(=O)N[C@H](C(=O)N[C@@H](CCCNC(=N)N)C(=O)N[C@H]1CSCc2cccc(c2)CSC[C@@H](C(N)=O)NC(=O)[C@H](CO)NC(=O)[C@H](Cc2c[nH]c3ccccc23)NC(=O)[C@H]([C@@H](C)O)NC(=O)[C@H](CC(C)C)NC(=O)[C@H](Cc2c[nH]c3ccccc23)NC(=O)[C@H](CC(=O)O)NC(=O)[C@H]2CCCN2C(=O)[C@H](CCC(=O)O)NC1=O)C(C)C
notes: also called Ac-Val-Arg-[Cys(3MeBn)-Glu-pro-Asp-Trp-Leu-Thr-Trp-Ser-Cys]-NH2
pIC50: > 8 pic50

B5: 3BP-3565 (peptide)
peptide: Ac-VYCE[dP]DWLTWSC-NH2
modifications: linker 3-12 via mXylylene
SMILES: CC(=O)N[C@H](C(=O)N[C@@H](Cc1ccc(O)cc1)C(=O)N[C@H]1CSCc2cccc(c2)CSC[C@@H](C(N)=O)NC(=O)[C@H](CO)NC(=O)[C@H](Cc2c[nH]c3ccccc23)NC(=O)[C@H]([C@@H](C)O)NC(=O)[C@H](CC(C)C)NC(=O)[C@H](Cc2c[nH]c3ccccc23)NC(=O)[C@H](CC(=O)O)NC(=O)[C@H]2CCCN2C(=O)[C@H](CCC(=O)O)NC1=O)C(C)C
notes: also called Ac-Val-Tyr-[Cys(3MeBn)-Glu-pro-Asp-Trp-Leu-Thr-Trp-Ser-Cys]-NH2
pIC50: > 8 pic50

B6: 3BP-3568 (peptide)
peptide: Ac-IYCE[dP]DWLTWSC-NH2
modifications: linker 3-12 via mXylylene
SMILES: CC[C@H](C)[C@H](NC(C)=O)C(=O)N[C@@H](Cc1ccc(O)cc1)C(=O)N[C@H]1CSCc2cccc(c2)CSC[C@@H](C(N)=O)NC(=O)[C@H](CO)NC(=O)[C@H](Cc2c[nH]c3ccccc23)NC(=O)[C@H]([C@@H](C)O)NC(=O)[C@H](CC(C)C)NC(=O)[C@H](Cc2c[nH]c3ccccc23)NC(=O)[C@H](CC(=O)O)NC(=O)[C@H]2CCCN2C(=O)[C@H](CCC(=O)O)NC1=O
notes: also called Ac-Ile-Tyr-[Cys(3MeBn)-Glu-pro-Asp-Trp-Leu-Thr-Trp-Ser-Cys]-NH2
pIC50: > 8 pic50

B7: 3BP-3434 (peptide)
peptide: Ac-VYCE[dP]DWLTWAC
modifications: linker 3-12 via mXylylene; not fully specified (C-terminus)
notes: also called Ac-Val-Tyr-[Cys(3MeBn)-Glu-pro-Asp-Trp-Leu-Thr-Trp-Ala-Cys]-Ape-NH-DOTA′
pIC50: > 8 pic50

B9: 3BP-3478 (peptide)
peptide: Ac-VYCE[dP]DWLTWE([Apr-DOTA])C-NH2
modifications: linker 3-12 via mXylylene; reading uncertain
notes: also called Ac-Val-Tyr-[Cys(3MeBn)-Glu-pro-Asp-Trp-Leu-Thr-Trp-Glu(NH-Apr-DOTA′)-Cys]-NH2
pIC50: > 8 pic50

B13: 3BP-3566 (peptide)
peptide: Ac-SYCE[dP]DWLTWSC-NH2
modifications: linker 3-12 via mXylylene
SMILES: CC(=O)N[C@@H](CO)C(=O)N[C@@H](Cc1ccc(O)cc1)C(=O)N[C@H]1CSCc2cccc(c2)CSC[C@@H](C(N)=O)NC(=O)[C@H](CO)NC(=O)[C@H](Cc2c[nH]c3ccccc23)NC(=O)[C@H]([C@@H](C)O)NC(=O)[C@H](CC(C)C)NC(=O)[C@H](Cc2c[nH]c3ccccc23)NC(=O)[C@H](CC(=O)O)NC(=O)[C@H]2CCCN2C(=O)[C@H](CCC(=O)O)NC1=O
notes: also called Ac-Ser-Tyr-[Cys(3MeBn)-Glu-pro-Asp-Trp-Leu-Thr-Trp-Ser-Cys]-NH2
pIC50: > 8 pic50

B14: 3BP-3589 (peptide)
peptide: Ac-V[NMeY]CE[dP]DWLTWSC-NH2
modifications: linker 3-12 via mXylylene
SMILES: CC(=O)N[C@H](C(=O)N(C)[C@@H](Cc1ccc(O)cc1)C(=O)N[C@H]1CSCc2cccc(c2)CSC[C@@H](C(N)=O)NC(=O)[C@H](CO)NC(=O)[C@H](Cc2c[nH]c3ccccc23)NC(=O)[C@H]([C@@H](C)O)NC(=O)[C@H](CC(C)C)NC(=O)[C@H](Cc2c[nH]c3ccccc23)NC(=O)[C@H](CC(=O)O)NC(=O)[C@H]2CCCN2C(=O)[C@H](CCC(=O)O)NC1=O)C(C)C
notes: also called Ac-Val-Nmy-[Cys(3MeBn)-Glu-pro-Asp-Trp-Leu-Thr-Trp-Ser-Cys]-NH2
pIC50: > 8 pic50

B15: 3BP-3479 (peptide)
peptide: Ac-VYCE[dP]DWLTWE([Apr-AEEA-DOTA])C-NH2
modifications: linker 3-12 via mXylylene; reading uncertain
notes: also called Ac-Val-Tyr-[Cys(3MeBn)-Glu-pro-Asp-Trp-Leu-Thr-Trp-Glu(NH-Apr-O2Oc-DOTA′)-Cys]-NH2
pIC50: > 8 pic50

B16: 3BP-3571 (peptide)
peptide: Ac-VSCE[dP]DWLTWSC-NH2
modifications: linker 3-12 via mXylylene
SMILES: CC(=O)N[C@H](C(=O)N[C@@H](CO)C(=O)N[C@H]1CSCc2cccc(c2)CSC[C@@H](C(N)=O)NC(=O)[C@H](CO)NC(=O)[C@H](Cc2c[nH]c3ccccc23)NC(=O)[C@H]([C@@H](C)O)NC(=O)[C@H](CC(C)C)NC(=O)[C@H](Cc2c[nH]c3ccccc23)NC(=O)[C@H](CC(=O)O)NC(=O)[C@H]2CCCN2C(=O)[C@H](CCC(=O)O)NC1=O)C(C)C
notes: also called Ac-Val-Ser-[Cys(3MeBn)-Glu-pro-Asp-Trp-Leu-Thr-Trp-Ser-Cys]-NH2
pIC50: > 8 pic50

B17: 3BP-3567 (peptide)
peptide: Ac-TYCE[dP]DWLTWSC-NH2
modifications: linker 3-12 via mXylylene
SMILES: CC(=O)N[C@H](C(=O)N[C@@H](Cc1ccc(O)cc1)C(=O)N[C@H]1CSCc2cccc(c2)CSC[C@@H](C(N)=O)NC(=O)[C@H](CO)NC(=O)[C@H](Cc2c[nH]c3ccccc23)NC(=O)[C@H]([C@@H](C)O)NC(=O)[C@H](CC(C)C)NC(=O)[C@H](Cc2c[nH]c3ccccc23)NC(=O)[C@H](CC(=O)O)NC(=O)[C@H]2CCCN2C(=O)[C@H](CCC(=O)O)NC1=O)[C@@H](C)O
notes: also called Ac-Thr-Tyr-[Cys(3MeBn)-Glu-pro-Asp-Trp-Leu-Thr-Trp-Ser-Cys]-NH2
pIC50: > 8 pic50

B19: 3BP-3583 (peptide)
peptide: {DOTA-APAc}-VYCE[dP]DWLTWSC-NH2
modifications: linker 3-12 via mXylylene; reading uncertain
notes: also called DOTA-APAc-Val-Tyr-[Cys(3MeBn)-Glu-pro-Asp-Trp-Leu-Thr-Trp-Ser-Cys]-NH2
pIC50: > 8 pic50

Next, values leading:

pIC50: > 8 pic50
B2: 3BP-3732 (peptide)
peptide: Ac-SYCE[dP]DWLTWE([Apr-AEEA-DOTA])C-NH2
modifications: linker 3-12 via 3MeBn; reading uncertain
notes: also called Ac-Ser-Tyr-[Cys(3MeBn)-Glu-pro-Asp-Trp-Leu-Thr-Trp-Glu(NH-Apr-O2Oc-DOTA′)-Cys]-NH2

pIC50: > 8 pic50
B8: 3BP-3599 (peptide)
peptide: {DOTA-APAc}-VYCE[dP]DWLTWRC-NH2
modifications: linker 3-12 via mXylylene; reading uncertain
notes: also called DOTA-APAc-Val-Tyr-[Cys(3MeBn)-Glu-pro-Asp-Trp-Leu-Thr-Trp-Arg-Cys]-NH2

pIC50: > 8 pic50
B10: 3BP-3595 (peptide)
peptide: {DOTA-APAc}-VYCE[dP]SWLTWSC-NH2
modifications: linker 3-12 via mXylylene; reading uncertain
notes: also called DOTA-APAc-Val-Tyr-[Cys(3MeBn)-Glu-pro-Ser-Trp-Leu-Thr-Trp-Ser-Cys]-NH2

pIC50: > 8 pic50
B11: 3BP-3596 (peptide)
peptide: {DOTA-APAc}-VYCE[dP]DFLTWSC-NH2
modifications: linker 3-12 via mXylylene; reading uncertain
notes: also called DOTA-APAc-Val-Tyr-[Cys(3MeBn)-Glu-pro-Asp-Phe-Leu-Thr-Trp-Ser-Cys]-NH2

pIC50: > 8 pic50
B12: 3BP-3733 (peptide)
peptide: Ac-VFCE[dP]DWLTWE([Apr-AEEA-DOTA])C-NH2
modifications: linker 3-12 via 3MeBn; reading uncertain
notes: also called Ac-Val-Phe-[Cys(3MeBn)-Glu-pro-Asp-Trp-Leu-Thr-Trp-Glu(NH-Apr-O2Oc-DOTA′)-Cys]-NH2

pIC50: > 8 pic50
B18: 3BP-3597 (peptide)
peptide: {DOTA-APAc}-VYCE[dP]DWLHWSC-NH2
modifications: linker 3-12 via mXylylene; reading uncertain
notes: also called DOTA-APAc-Val-Tyr-[Cys(3MeBn)-Glu-pro-Asp-Trp-Leu-His-Trp-Ser-Cys]-NH2
